Source: the supplement of paper PMC7125110
± gives the standard error. Variants at the floor of the assay were thinned out.

B1: glmS ribozyme (parent)
chain: AUAAAAGCGCCAGAACUACAGAAAUGUAGUUGACGAGGAGGAGGUUUAUCGAAUUUUCGGCGGAUGCCUCCAAA

Assays:
Settings in all cases: with glucosamine-6-phosphate
glucosamine-6-phosphate [1] = variants of: B1; experiment: self-cleavage kobs at 640 uM GlcN6P; higher = faster cleavage; RNA array
Procedure, shortened: (§1)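 Barcoded glmS ribozyme variants on sequenced MiSeq chips were transcribed in situ by E. coli RNA polymerase and tracked through a hybridised Cy3 probe at 37 °C. Glucosamine-6-phosphate (40 μM to 10 mM) in HEPES/KCl/Mg(OAc)2 buffer was flowed in, and tiles were imaged over ~14 h. Signals were normalised to baseline and to non-cleaving reference variants; per-tile medians were fit to one- or two-exponential decays to give kobs. kcat and KM came from weighted Michaelis–Menten fits across concentrations.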

glucosamine-6-phosphate [2] = variants of: B1; experiment: self-cleavage kobs at 2500 uM GlcN6P; higher = faster cleavage; RNA array
Procedure, shortened: as §1

glucosamine-6-phosphate [3] = variants of: B1; experiment: self-cleavage kobs at 10000 uM GlcN6P; higher = faster cleavage; RNA array
Procedure, shortened: as §1

Variant	self-cleavage kobs at 640 uM GlcN6P (glucosamine-6-phosphate [1]) [s⁻¹]	self-cleavage kobs at 2500 uM GlcN6P (glucosamine-6-phosphate [2]) [s⁻¹]	self-cleavage kobs at 10000 uM GlcN6P (glucosamine-6-phosphate [3]) [s⁻¹]
C16U A36U G38U U46G	< 1e-05	< 1e-05	< 1e-05
A14C C34A U46A	< 1e-05		
G13A A39G A52C	< 1e-05		
G29A A42G U56G	0.000337 ± 0.00011	0.00148 ± 0.00036	
G21U U54C U69C	0.00201 ± 0.00057	0.000416 ± 0.00014	
A14C C50U U54A	< 1e-05	< 1e-05	
A14U U30C C70G	9.88e-05 ± 3e-05	8.37e-05 ± 2.2e-05	
G13U G62C	< 1e-05	< 1e-05	
C16U G29U G40U G62C	< 1e-05		
A15C G32A U55C G59U	< 1e-05		
A15G U57A	0.000105 ± 2e-05	0.000107 ± 2.8e-05	0.000392 ± 5.3e-05
A12U A42G C68U	0.00273 ± 0.00096		
C16A G41A G43U C61G C68U	< 1e-05	< 1e-05	
C16U U45A C70G	0.000277 ± 6e-05	0.000385 ± 9.2e-05	
A12U A36C C68G	0.000173 ± 5.8e-05		
G13A U31G A33U	< 1e-05	< 1e-05	
G13U G32A U46A	4.17e-05 ± 1.9e-05	8.03e-05 ± 2.3e-05	
G13C A39G U57C A64U C67U C70U	< 1e-05		
G13U U56A C71U	0.000105 ± 1.6e-05	8.21e-05 ± 2.1e-05	
A12U C16U G43U	4.04e-05 ± 1.7e-05	7.33e-05 ± 1.4e-05	
A15C U47G G66U	< 1e-05		

Variant	self-cleavage kobs at 640 uM GlcN6P (glucosamine-6-phosphate [1]) [s⁻¹]	self-cleavage kobs at 2500 uM GlcN6P (glucosamine-6-phosphate [2]) [s⁻¹]	self-cleavage kobs at 10000 uM GlcN6P (glucosamine-6-phosphate [3]) [s⁻¹]
C16A G41U G59A	< 1e-05	< 1e-05	
A14U A36U G38C G62A	< 1e-05		
A15U G37A	0.000117 ± 2.4e-05	0.000103 ± 2.8e-05	0.000568 ± 0.00011
A15U A36C G44U C58G G59C C61U G63U U69A	< 1e-05		
A12U U56C C71A	5.04e-05 ± 1.6e-05	0.00012 ± 4e-05	
A14C C34G A36C G59C	< 1e-05		
C16A G43U	< 1e-05		< 1e-05
G13U A36G U47C	< 1e-05		
G13A C50G U55A C67U	0.000168 ± 8.1e-05	7.15e-05 ± 2.6e-05	
A14U C34U A52G	< 1e-05	< 1e-05	< 1e-05
A14U G40A A53C C71A	5.44e-05 ± 1.1e-05	0.000153 ± 2.6e-05	
A12U A15C A48G A52U G66A C70G	< 1e-05		
A15U U31C A39C	4.66e-05 ± 1.3e-05	0.000126 ± 2.4e-05	
C16U G35C A53U C58U	< 1e-05	< 1e-05	
G13A G41A C50U G51U C67U	< 1e-05		
A12U A48U C68A C70G	< 1e-05		
A14C C50A C61A	4.16e-05 ± 1.7e-05		
A14G U31G C67G	6.87e-05 ± 2.7e-05	5.23e-05 ± 1.9e-05	
A14U U46A C68U	4.63e-05 ± 1.7e-05	0.000119 ± 2e-05	
A14C U45A U56C	8.23e-05 ± 3.9e-05	0.000421 ± 0.00012	
A12U C67U C71U	0.000764 ± 0.0002	0.000592 ± 0.00018	

Variant	self-cleavage kobs at 640 uM GlcN6P (glucosamine-6-phosphate [1]) [s⁻¹]	self-cleavage kobs at 2500 uM GlcN6P (glucosamine-6-phosphate [2]) [s⁻¹]	self-cleavage kobs at 10000 uM GlcN6P (glucosamine-6-phosphate [3]) [s⁻¹]
C16U C58U G63U	< 1e-05		< 1e-05
G13U A14G A42C	< 1e-05	< 1e-05	
G13C U30A G41U G63A A64C	< 1e-05	< 1e-05	
A15G G35C A53U	< 1e-05	< 1e-05	< 1e-05
C16U G35U U55A	< 1e-05		
A12G A33G G40C A52G U54A C58A	< 1e-05		
C16U U31A A33C U56G C68G	< 1e-05		
A15C C16G U55C C61G	< 1e-05		
C16U G21U G35U C70A	7.72e-05 ± 2.8e-05		
A12U U31G G41U	0.00016 ± 5.9e-05	0.000471 ± 0.00018	
A14U U31A G37C G59C	< 1e-05	< 1e-05	
A15C U56A U65G	5.97e-05 ± 2.3e-05	0.000177 ± 6.3e-05	0.000562 ± 0.00012
A14U U31A G32U C67U	5.86e-05 ± 2.4e-05	0.000276 ± 7.5e-05	
A12C C16G A42G G44C U45G U46A C61A G62C	< 1e-05	< 1e-05	
A12U C16U A42U	0.000196 ± 4.1e-05		
G13U A42C A48U A53C G60C	< 1e-05	< 1e-05	
A14G A36C G66A	< 1e-05		
C16A A53G G62A	< 1e-05		
G26U G32U	0.000131 ± 4.5e-05	0.000943 ± 0.00021	
A14U U17C A18U C19A G59U G66A	< 1e-05	< 1e-05	
